Data on one substance can be found in patent US20040009897A1.

By % Inhibition is commonly meant the relative decrease from the control value, in per cent.

The target in experiment [1] is human recombinant soluble CD4 (human) (UniProt P01730). The experiment is described as follows: competitive ELISA on rsCD4; competitor mAb B4-HRP; unlabelled mAb B4 at 2.0 µg/mL, positive control run with week 11 sera.
Experiment [2] has the same target. The experiment is described as follows: competitive ELISA on rsCD4; competitor mAb B4-HRP; unlabelled mAb B4 at 2.0 µg/mL, positive control run with week 17 sera. A general note: An ELISA detects its analyte on a solid surface through an enzyme-linked reagent.
The target is the same in experiment [3]. Put plainly: competitive ELISA on rsCD4; competitor mAb B4-HRP; unlabelled mAb B4 at 20 µg/mL, positive control run with week 11 sera.
Experiment [4] shares this target. The experiment is described as follows: competitive ELISA on rsCD4; competitor mAb B4-HRP; unlabelled mAb B4 at 20 µg/mL, positive control run with week 9 sera.
Experiment [5] shares this target. Put plainly: competitive ELISA on rsCD4; competitor mAb B4-HRP; unlabelled mAb B4 at 20 µg/mL, positive control run with week 17 sera.
Experiment [6] has the same target. The experiment is described as follows: competitive ELISA on rsCD4; competitor mAb B4-HRP; unlabelled mAb B4 at 2.0 µg/mL, positive control run with week 9 sera.

“mAb B4 (anti-binding site monoclonal antibody), unlabelled, purified”: the % Inhibition is 11.7% in experiment [1]; 11.7% in experiment [2]; 63% in experiment [3]; 63% in experiment [4]; 48.7% in experiment [5]; 23.5% in experiment [6].
